According to paper PMC6289461, “Mek1 coordinates meiotic progression with DNA break repair by directly phosphorylating and inhibiting the yeast pachytene exit regulator Ndt80”:

Biological target: T1, 6xHis-Ndt80 WT DBD (Saccharomyces cerevisiae, UniProt P38830 1-340)
T1 sequence: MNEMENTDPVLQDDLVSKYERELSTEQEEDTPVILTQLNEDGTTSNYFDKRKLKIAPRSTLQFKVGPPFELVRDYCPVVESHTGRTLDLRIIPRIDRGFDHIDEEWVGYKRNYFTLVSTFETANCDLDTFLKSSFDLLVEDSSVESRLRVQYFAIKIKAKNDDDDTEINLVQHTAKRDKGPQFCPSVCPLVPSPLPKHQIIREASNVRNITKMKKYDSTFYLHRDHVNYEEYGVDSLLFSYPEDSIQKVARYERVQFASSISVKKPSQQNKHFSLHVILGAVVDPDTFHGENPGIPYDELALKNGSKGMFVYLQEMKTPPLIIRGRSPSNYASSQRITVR
Experiment: EMSA; 50 nM DBD, 50 nM duplex; highest non-specific binding of the three DBDs; EMSA: 10 mM Tris-HCl pH 7.5, 40 mM NaCl, 4 mM MgCl2, 6% glycerol, 10 mg/ml BSA, 10 ug/ml sonicated salmon sperm DNA; 20 ul, room temperature, 30 min; 6% PAGE in 0.5X TBE
Conditions: protein: recombinant; tags: N-terminal 6xHis (pET-28a); label: 5' Cy5 on strand 1; blunt

B1: Cy5-Scr duplex (dsDNA)
DNA 1: ATTGACGCGGCTTCATCTCACGTATCATT
DNA 2: AATGATACGTGAGATGAAGCCGCGTCAAT
- binding result: binds
